Experiment: yeast display, Sf9 membrane polyspecificity reagent, FACS + sequencing; frameworks hold sequencing errors
Method in brief: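 Galactose-induced (36–48 hours) yeast carrying a synthetic nanobody display library were exposed to 10% biotinylated, detergent-solubilized Sf9 membrane reagent at 4 °C for 1 hour. FACS followed streptavidin microbead enrichment, using low and high (top ~1%) gates for expression (anti-HA) and reagent binding (streptavidin). Colony PCR, MiSeq 2 × 250 sequencing and CDR-length filtering followed. Labels for polyreactivity reflect the gate of origin.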

Sequence	polyreactivity (PSR sort gate)
QVQLVESGGGLVQAGGSLRLSCAASGSTFIFYVMGWNRQAPGKERELVASITGNGTSTYYADSVKGRFTISRDNAKNTVYLQMNSLKPEDTAVYYCNAVFSPSRYDYWGQGTQVTVSS	low polyreactivity
QVQLVESGGGLVQAGGSLRLSCAASGSIFDDYAMGWYRQAPGKERELVAAISWSGGRPYYADSVKGRFTNSRDNAKNTVYLPMNSLKPEDTAVYYCAATTGVRSRRYYYWVQGTQVTVSS	low polyreactivity
QVQLGESVGGLVQAGGSLRLSCAASGFIIGYYAMGWYRPPPGTERELVAAISSTGGSTYYADSVKGRFTISRDNAKNTVYLQMNSLNPEDTAVYYCAKRFASYRYHPGYDYWGQGTQVTVSS	high polyreactivity
QVQLVESGGGLVQAGGSLRLSCAASGRTFAINTMGWYRQAPGKEREFVASITRRGGSTYYADSVKVRFTISLDNAKNTVYFQMNSLKPEDTAVYYCNAELRWRLRARAAYYYWGQGSQVTVSS	high polyreactivity
QVQIVESGGGLVQAAGSLRLTFAASGIIFYIYPMGWYRPAPGKERELVASISFSGTSTYYADSVKGRFTISRDNAKNTVYIQMHSLKPEDTAVYYCAAGARWRRALAVKPYQKYGYWGQGTQVTVSS	low polyreactivity
QVQLVESGGGIVQAGRSLRLSCAASGFTFYWYAMGWYRQAPGKERELVAAISWSGGSTYYADSVKGRFTISRDNETNTVYLQMYSLKPEDTAVYYCAADNYFFGDEDYWGQGTQVTVSS	high polyreactivity
QVQLVESGGGLVQAGGSLRLSCAASGSTLNLYAMGWYRQAPGKEREVVAGITGGGSSTYYADSVKGRFTISRDNAKNTVYLQMNSLKPEDTAVYYCNVEPGYYYYRHWVAYSHGYGYWGQGTQVTVSS	low polyreactivity
QVQLVESRGGLVQAGGSLRLSCAASGSTSYIYVMGWYRQAPGKERELVATISKNGGDTYADSVKGRFTISRDNAKNTVYLQMNSLKPEDTAVYYCYARAYLYNRRISSRYNYWGQGTQVTVSS	high polyreactivity
QVQLVESGGGLVQAGGSLRLSCAASGSIFYAYAMGWYRQAPGKERELVATITSGGSTNYADSVKGRFTISRDNAKNTVYLQMNSLKPEDTAVYYCAVDISYSLGGGFGYDYWGQGTQVTVSS	low polyreactivity
QVQLVESGGGLVQAGGSLRLSSAASGSIFAWYGMGWYRQAPGKERELVAAISTAGSTNYADSVKGRFTISRDNAKNTVYLQMNSLKPEDTAVYYCAKKSSWYYPERFDYWGQGTQVTVSS	low polyreactivity
QVQLVESGGGLVHAGGSLRLSCAASGRIFYYNAMGWYRQAPGKEREFVAAIRSSGGSTYYSDSVKGRFTISRDNAKNTVYLQMNSLKPEDTAVYYCAADFYGLGDYGVDYWGQGTQVTVSS	low polyreactivity
QVQLVESGGGLVQAGGSLRLSCAASGSTFSQNAMGWYRQAPGKERELVAAITSGGITYYADSVKGRFTISRDNAKNTVYLQMNSLKPEDTAVYYCAADFWPSGRGVAFDYWGQGTQVTVSS	low polyreactivity
QVQLVESGGGLVQAGGSLRLSCAASGSTFNSYAMGWYRQAPGKERELVAAISWSGGSTYYADSVKGRFTISRDNAKNTVYLQMNSLKPEDPAVYYCNADYWWEYAYGVDYWGQGTQVTVSS	low polyreactivity
QVQLVESGGGLVQAGGSLRLSCAASGRIITAYYAMGWYRQAPGKERELVASISSSGTSTYADSVKGRFTISRDNAKNTVYLQMNSLKPEDTAVYYCATRKLRTRRYDYGYWGQGTQVTVSS	low polyreactivity
QVQLVESWGGLVQAGGSLRLSCAASGFTFLNYAMGWYRQAPGKERELVAAISFSTGRTYYADSVKGRFTISRDNAKNTDYLQMNSLKPEDTAVYYGAAGYWPGYSLTYRGGYWGQGTQVTVSS	high polyreactivity
QVQLVESGGGLVQAGGSLRLSCAASGYTFPYYTMGWYRQAPGKERELVATITRRGDSTYYADSVKGRFTLSRDNAKNTVYLQMNSLKPEDTAVYYCNTASYGRHQFRKSSKMDYWGQGTQVTVSS	high polyreactivity

Sequence	polyreactivity (PSR sort gate)
QVQLVESGGGLVPAGGSLRLSCAASGSTFSDYAMGWYRQAPGKERELVASIDSGDSTNYADSVKGRFTISRDNAKNTVYLQMTSLKPEDTAVYFCAADYQNTGARYGYYYWGQGTQVTVSS	low polyreactivity
QDQHVESGGGLVQAGGSLRLSCAASGITIRTNAIGWYRQAPGKERELVAAITTNGGNTYYADSVKGRFTISRENAKNTVYLQMNSLKQEDTAVYYCNTATYVDSFPDPGDHWGQGTQVTVSS	low polyreactivity
QVQLVESGGGLVQAGGSIRISCAASGSIFIIYAMGWYRQATGKEWELVAGIRGRCGSTYYADSVKGRFTISRDNAKNTVYLQMNSLKPEDTAVYYCDASVYRGYNYWGQGTQVTVSW	high polyreactivity
QVQLVESGGGLVQAGGSLRFSSAASGRTFSSNAMGWYIQAPGKERELVAAISNSGSSTYYADSVKGRFTISRDNAKNTVYLQMNSLKPEDSAVYYCNAVGVYYWWYRLYDYWGQGTQVTVSS	high polyreactivity
QVQLVESGGGLVQAGGSLRLSCAASGSTFDPYGKGWYRQAPGKERELVATITYSSGSTSYADSVKGRFTISRDHAKNTVYLQMNSLKPEDTAVYYCAKKYYTGYGYWGQGTQVTVSS	low polyreactivity
QYQLVESGGGLVQAGGSLRLSCAASGRIFLVYVMGWYRQAPGKERELVADITFSGGSTYYADSVKGRFTISRDNEKNNVYLQMNSLKPEYTAVYYCAAATWSFLDYWGQGTQVTVSS	high polyreactivity
QVQLVESGGGLVQAGGSLRLSCAASGFTFAGYAMGWYRLAPGKVRELVAAISWRGGSTYYADSVKGRFTISRDNAKNTVYLQMNSLKPEDTAVYYCAAASRKRTSREPLDYWGQGTQVTVSS	high polyreactivity
QVQLVESGAGLVQAGGSLRLSCAASGYAMGWYRQAPGKERELVAAITSNGGRTYYADSVKGRFTISRDYAKNTVYLEMNSLKPEDTAVYYCATRTGPHYKTRWTYDQGYWGQGTQVTVSS	low polyreactivity
QVQLVESGGGLVQAGGSLRLSCAASGRIGNTMGWYRQAPGKERELVATISSSGGSTYYADSVKGRFTISRDNAKNTVYLQMNSLKPEDTAVYYCAVEYYGYSTSGRYLSPYNYWGQGTQVTVSS	low polyreactivity
QVQLVESGGGLVQAGGSLRLSCAASGSTFPANAMGWYRPAPGKERELVAAISSVGSTNYADSVKGRFTISRDNAKNTVYLQMNSLKPEDTAVYYCATQPTWYTVGDLDYWGQGTQVTVSS	low polyreactivity
QVQLVESGGGLVQAGGSLRLSCADSGFTFKSYTMGWYRQAPGKERELVAAISRRDGSTYYADSVKGRFTISRDNAKNTVYLQMNSLKPEDTAVYYCAKVWYGDRNIDRYDYWGQGTQVTVSS	high polyreactivity
QVQLVESGGGLVQAGGSLRLSCAASGSIFTRNAMGWYRQAPGKERELVAAITSGGRTYYADSVKGRFTISRDNAKNTVYLQMNSLKPEDTAVYYCNAYAWGWYDYWGQGTQVTVSS	high polyreactivity
QVQLVESGGGLVQAGGSLRLSCAASGSTFDYNAMGWYRQAPGKERELVAAINSGASTYYADSVKGRFTISRDNAKNTVYLQMNSLKPEDTAVYYCAKDYPYIGDYWGQGTQVTVSS	low polyreactivity
QVQLVESGGGLVQAGGSLRLSSAASGRIFLRNALGWYRQAPGKERESVAAITRGGSTNYADSVKGRFTISRDNAKNTVYLQMNSLKPEDTAVYYCNARYPVVRYDYWGQGTQVTVSS	high polyreactivity
QVQLVESGGGLVQAGGSLRLSCAASGSIFRYYVTGWYRQAPGKERELVATISSSGGRTYYADSVKGRFTISRDNAKNTVYLQMNSLKPEDTAVYYCNARTSPYSGYSGRYYWGQGTQVTVSS	high polyreactivity
QVQLVESGGGLVQAGGTLSLSCAATGRNLSYAMGWYRQAPGKERELVAAMNWSGGTTYYADSVKGRFTISRDNAKNTVYLQMNSLKQEDTAVYYCAARVRGTGYNSWGQGTQLTVSS	high polyreactivity

— the nanobody polyreactivity screen of Harvey et al. (2022)
